This is an account of results in US20240150433A1, “ERT2 MUTANTS AND USES THEREOF” (Senti Biosciences, Inc., priority 2021, published 2024).

The conditions of data set [1]: following a typical clinical dose of tamoxifen; cited from earlier work.
The test system of data set [2] is U87MG:1066 cells. As to the kind of experiment: ERT2 mutant validation in U87MG with mCherry reporter. The class given is cell-based. The note with it: validation screen versus wild-type ERT2. The protocol: About 16 hours before transduction 100k U87MG:1066 cells were seeded into 16 wells in 12 well plate format. During transduction, cells in each well were transduced with 100k pg of virus of ERT2 variant constructs. After transduction, cells were split in to 50k cells per well in a 24 well plate format, and treated with drug-free media or a range of endoxifen or 4-OHT drug conditions. About two days after treatment of cells with endoxifen or 4-OHT, cells were collected and mCherry reporter expression was quantified by flow cytometry.
Screening of the ERT2 mutant library identified a subset of ERT2 variants that were sensitive to endoxifen at 1 nM. Among this subset, 15 variants (Table 19) were validated in U87MG cells for their ability to activate an mCherry reporter (SB01066; FIG. 14B) at a range of concentrations of 0 pM, 10 pM, 50 pM, 100 pM, and 1 nM of endoxifen (FIG. 15A) and 4-OHT (FIG. 15B). Expression of mCherry was quantified about 24 hours after treatment with endoxifen or 4-OHT.
Select ERT2 variants (Table 20) from the previous screens were further tested for sensitivity to endoxifen and 4-OHT, compared to wild-type ERT2. […] Fold activation was calculated by gMFI mCherry levels of each test condition divided by gMFI mCherry levels of U87MG cells transduced with the reporter (SB01066).

For data set [3], the system named is NK cells. As to the kind of experiment: Validation of ERT2 mutants with mCherry reporter in NK cells. The class given is cell-based. The note with it: primary NK cells, mCherry by flow cytometry. On the procedure:
After 10 days of feeder cell activation, NK cells were co-transduced with ERT2 mutant virus and reporter SB01066 virus (Experimental Set-up 1). On Day 2 after transduction, transduced NK cells were treated with endoxifen or 4-OHT at a range of concentrations of 0 nM, 0.01 nM, 0.1 nM, 1 nM, and 10 nM. On Day 4, cells were checked for mCherry expression by flow cytometry.
(A flow cytometer gives signals particle by particle.)

`CC/C(=C(\c1ccccc1)c1ccc(OCCN(C)C)cc1)c1ccccc1` [tamoxifen]: the “average peak plasma concentration” value in data set [1] is recorded as “approximately 40 ng/mL”.

B1: wild-type ERT2: ER-LBD with G400V/M543A/L544A/V595A (SEQ ID NO: 3), benchmark construct ZF10-1_p65_ERT2 wild-type (protein)
chain: SAGDMRAANLWPSPLMIKRSKKNSLALSLTADQMVSALLDAEPPILYSEYDPTRPFSEASMMGLLTNLADRELVHMINWAKRVPGFVDLTLHDQVHLLECAWLEILMIGLVWRSMEHPVKLLFAPNLLLDRNQGKCVEGMVEIFDMLLATSSRFRMMNLQGEEFVCLKSIILLNSGVYTFLSSTLKSLEEKDHIHRVLDKITDTLIHLMAKAGLTLQQQHQRLAQLLLILSHIRHMSNKGMEHLYSMKCKNVVPLYDLLLEAADAHRLHAPTSRGGASVEETDQSHLATAGSTSSHSLQKYYITGEAEGFPATA
Consider B1, for which, in data set [2], the “4-OHT concentration at which mCherry expression is activated” value is recorded as “about 25 nM” and the “endoxifen concentration at which mCherry expression is activated” value is “about 25 nM”.

B2: SB06145: ZF10-1_p65_ERT2 variant L409V/N413D/Q414E/M421L/S463P/H524L (protein)
chain: SAGDMRAANLWPSPLMIKRSKKNSLALSLTADQMVSALLDAEPPILYSEYDPTRPFSEASMMGLLTNLADRELVHMINWAKRVPGFVDLTLHDQVHLLECAWLEILMIGLVWRSMEHPVKLLFAPNLVLDRDEGKCVEGLVEIFDMLLATSSRFRMMNLQGEEFVCLKSIILLNSGVYTFLPSTLKSLEEKDHIHRVLDKITDTLIHLMAKAGLTLQQQHQRLAQLLLILSHIRHMSNKGMELLYSMKCKNVVPLYDLLLEAADAHRLHAPTSRGGASVEETDQSHLATAGSTSSHSLQKYYITGEAEGFPATA
Regarding B2, in data set [3], the “4-OHT concentration at which variant was sensitive” value is listed as 0.1 nM and the “endoxifen concentration at which variant was sensitive” value is recorded as 0.1 nM.

B3: SB06142: ZF10-1_p65_ERT2 variant L354I/L391V/N413D/M421L/S463P/M517A/H524L (protein)
chain: SAGDMRAANLWPSPLMIKRSKKNSLALSLTADQMVSALLDAEPPILYSEYDPTRPFSEASMMGLLTNLADREIVHMINWAKRVPGFVDLTLHDQVHLLECAWLEILMIGVVWRSMEHPVKLLFAPNLLLDRDQGKCVEGLVEIFDMLLATSSRFRMMNLQGEEFVCLKSIILLNSGVYTFLPSTLKSLEEKDHIHRVLDKITDTLIHLMAKAGLTLQQQHQRLAQLLLILSHIRHASNKGMELLYSMKCKNVVPLYDLLLEAADAHRLHAPTSRGGASVEETDQSHLATAGSTSSHSLQKYYITGEAEGFPATA
In the case of B3, in data set [3], the “4-OHT concentration at which variant was sensitive” value is 0.1 nM and the “endoxifen concentration at which variant was sensitive” value is given as 0.1 nM.

B4: SB06136: ZF10-1_p65_ERT2 variant L384M/L391V/N413D/M421L/S463P/H524L (protein)
chain: SAGDMRAANLWPSPLMIKRSKKNSLALSLTADQMVSALLDAEPPILYSEYDPTRPFSEASMMGLLTNLADRELVHMINWAKRVPGFVDLTLHDQVHLLECAWMEILMIGVVWRSMEHPVKLLFAPNLLLDRDQGKCVEGLVEIFDMLLATSSRFRMMNLQGEEFVCLKSIILLNSGVYTFLPSTLKSLEEKDHIHRVLDKITDTLIHLMAKAGLTLQQQHQRLAQLLLILSHIRHMSNKGMELLYSMKCKNVVPLYDLLLEAADAHRLHAPTSRGGASVEETDQSHLATAGSTSSHSLQKYYITGEAEGFPATA
Turning to B4, in data set [3], the “4-OHT concentration at which variant was sensitive” value worked out at 0.1 nM and the “endoxifen concentration at which variant was sensitive” value is listed as 0.1 nM.
